Values quoted from earlier work as cited in article PMC8472222.

Molecular target: Rad57 (Saccharomyces cerevisiae) (UniProt P25301)
Sequence of UniProt P25301 (P25301 whole entry): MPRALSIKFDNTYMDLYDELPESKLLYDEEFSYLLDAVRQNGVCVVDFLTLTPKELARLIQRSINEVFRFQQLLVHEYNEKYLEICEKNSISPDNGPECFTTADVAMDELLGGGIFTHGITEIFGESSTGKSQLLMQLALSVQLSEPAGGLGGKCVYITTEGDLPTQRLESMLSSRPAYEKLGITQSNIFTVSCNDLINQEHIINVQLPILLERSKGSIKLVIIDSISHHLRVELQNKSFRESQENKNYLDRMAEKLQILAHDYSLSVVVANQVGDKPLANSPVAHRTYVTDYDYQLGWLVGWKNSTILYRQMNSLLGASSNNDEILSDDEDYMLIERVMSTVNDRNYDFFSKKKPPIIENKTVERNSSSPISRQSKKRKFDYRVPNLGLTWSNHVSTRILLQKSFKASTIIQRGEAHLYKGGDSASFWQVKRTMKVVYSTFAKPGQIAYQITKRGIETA

Substance: Rad55 (from UniProt P38953)
- Kd: < 0.2 nM
